The results in this text go back to the Immune Epitope Database (IEDB).

The term Kd denotes the concentration at which binding is half-saturated. By IC50 is commonly meant the concentration needed to halve the response being measured. A high value points to weaker potency in that assay.

Experiment [1] concerns the target HLA-A*24:03. As to the kind of experiment: IEDB peptide-MHC binding, purified MHC/competitive/fluorescence; filed as Kd, often an IC50 or EC50 that approximates it; ≥ and ≤ were set here for values at or beyond the usual limits of such assays.
The target in experiment [2] is HLA-B*58:01. In words: IEDB peptide-MHC binding, purified MHC/competitive/radioactivity; filed as Kd, often an IC50 or EC50 that approximates it; ≥ and ≤ were set here for values at or beyond the usual limits of such assays.
Experiment [3] deals with HLA-A*69:01. As to the kind of experiment: IEDB peptide-MHC binding, purified MHC/direct/fluorescence; filed as Kd, often an IC50 or EC50 that approximates it; ≥ and ≤ were set here for values at or beyond the usual limits of such assays.
Experiment [4] addresses HLA-A*02:03. The experiment is described as above. Conditions: source organism: Mycobacterium tuberculosis str. Haarlem.
The target of experiment [5] is HLA-B*07:02. In words: IEDB peptide-MHC binding, purified MHC/competitive/radioactivity; filed as Kd, often an IC50 or EC50 that approximates it; ≥ and ≤ were set here for values at or beyond the usual limits of such assays.
The target of experiment [6] is HLA-B*54:01. The description is as above.
Experiment [7] addresses HLA-B*51:01. Described as above.
Experiment [8] addresses HLA-B*53:01. Described as above.
Experiment [9] addresses HLA-B*35:01. The description is as above.
The target of experiment [10] is HLA-B*07:02. As to the kind of experiment: IEDB peptide-MHC binding, purified MHC/competitive/fluorescence; ≥ and ≤ were set here for values at or beyond the usual limits of such assays. Conditions: source organism: Sudan ebolavirus.
Experiment [11] addresses HLA-B*15:01. The experiment is described as above.
Experiment [12] has as its target HLA-A*02:01. The description is as above.
Experiment [13] deals with HLA-A*02:12. As to the kind of experiment: IEDB peptide-MHC binding, purified MHC/direct/fluorescence; filed as Kd, often an IC50 or EC50 that approximates it; ≥ and ≤ were set here for values at or beyond the usual limits of such assays. As to conditions: source organism: Ravn virus - Ravn, Kenya, 1987.
The target of experiment [14] is HLA-A*02:01. The experiment is described as above. As to conditions: source organism: Marburg virus - Musoke, Kenya, 1980.
Experiment [15] addresses HLA-A*24:02. As to the kind of experiment: IEDB peptide-MHC binding, purified MHC/competitive/fluorescence; ≥ and ≤ were set here for values at or beyond the usual limits of such assays. Conditions: source organism: Sudan ebolavirus.
The target of experiment [16] is HLA-A*11:01. The experiment is described as above. As to conditions: source organism: Sudan ebolavirus.
The target in experiment [17] is HLA-B*15:42. In words: IEDB peptide-MHC binding, purified MHC/competitive/fluorescence; filed as Kd, often an IC50 or EC50 that approximates it; ≥ and ≤ were set here for values at or beyond the usual limits of such assays. Conditions: source organism: Orthohantavirus puumalaense.
The target in experiment [18] is HLA-B*45:06. The description is as above. As to conditions: source organism: Orthohantavirus puumalaense.
The target of experiment [19] is HLA-B*83:01. Described as above. Conditions: source organism: Orthohantavirus puumalaense.
Experiment [20] addresses HLA-B*40:01. In words: IEDB peptide-MHC binding, purified MHC/direct/fluorescence; filed as Kd, often an IC50 or EC50 that approximates it; ≥ and ≤ were set here for values at or beyond the usual limits of such assays. As to conditions: source organism: Amur virus.
The target of experiment [21] is HLA-B*18:01. Described as above. Conditions: source organism: Amur virus.
For experiment [22], the target named is HLA-B*57:01. In words: IEDB peptide-MHC binding, purified MHC/competitive/radioactivity; filed as Kd, often an IC50 or EC50 that approximates it; ≥ and ≤ were set here for values at or beyond the usual limits of such assays. Conditions: source organism: Dengue virus 3 Martinique/1243/1999.
Where [23] appears, read: source organism: Vaccinia virus WR.
The mark [24] stands for this setting: source organism: Zaire ebolavirus.
[25] abbreviates: source organism: Vaccinia virus.
Where [26] appears, read: source organism: SARS coronavirus Tor2.

In turn, FWPQHFGLI showed a dissociation constant Kd in experiment [1] (source organism: Escherichia coli F11) of 0.4 nM.
Consider RSVSGDLIL, for which, in experiment [2] (source organism: Dengue virus 1 Brazil/97-11/1997), the Kd worked out at 9.84 nM.
In the case of ALLENIHRV, the Kd was 47.3 nM in experiment [3] (source organism: Mycobacterium tuberculosis) and 2 nM in experiment [4].
EPEKDIRELL: the Kd in experiment [5] (setting [23]) is 15500 nM; in experiment [6] (setting [23]), at least 24200 nM; in experiment [7] (setting [23]) it was at least 51000 nM; in experiment [8] (setting [23]), 226 nM; in experiment [9] (setting [23]), at least 35500 nM.
In turn, LRKRSRRQT returned an IC50 in [10] of 18800 nM.
Consider PPLISILMI, for which the Kd worked out at 7300 nM in [5] (setting [23]); 8780 nM in [6] (setting [23]); 91.2 nM in experiment [7] (setting [23]); 818 nM in [8] (setting [23]); 19300 nM in [9] (setting [23]).
Turning to IQVHAEQGL, the IC50 in experiment [11] (setting [24]) was 33000 nM; in experiment [12] (setting [24]) it was at least 105000 nM.
As for YLPEDSDIL, the Kd was at least 20000 nM in experiment [3] (source organism: Marburg virus - Musoke, Kenya, 1980); 6 nM in experiment [13]; 525 nM in experiment [14].
Turning to ILRSLETDL, the figures for the half-maximal inhibitory concentration (IC50) in experiment [11] (setting [25]) and in [12] (setting [25]) were 58900 nM and 22000 nM, respectively.
Regarding HTPQFLFQL, the IC50 in experiment [10] was at least 78800 nM; in [15], 1110 nM; in experiment [16] it was at least 166000 nM; in experiment [12] (source organism: Sudan ebolavirus), 2730 nM.
As to LPRDKFRKS, in [10], the 50% inhibitory concentration (IC50) worked out at 16900 nM.
Consider KHAQRIETW, for which the Kd in experiment [2] (source organism: Dengue virus 2 Peru/IQT2913/1996) is 482 nM.
As for KPVIVPDIKL, the equilibrium dissociation constant (Kd) was 236 nM in [5] (setting [23]); 3810 nM in [6] (setting [23]); at least 69600 nM in [7] (setting [23]); 5200 nM in [8] (setting [23]); 8870 nM in [9] (setting [23]).
The matching figures for RPRVTKQYIV: 4.55 nM, 106 nM, 14900 nM, 4450 nM and 11500 nM.
Regarding AELGAFFSI, the Kd in experiment [17] was at least 5000 nM; in experiment [18], at least 5000 nM; in experiment [19], at least 5000 nM; in [20], at most 1 nM; in experiment [21], 40.8 nM.
NYPVAKGSY came in with a Kd in experiment [1] (source organism: Influenza A virus (A/Kayano/57(H2N2))) of at least 20000 nM.
With KPASRELSV, the dissociation constant Kd in experiment [5] (setting [26]) amounted to 5.7 nM; in experiment [6] (setting [26]), 9540 nM; in experiment [7] (setting [26]), 631 nM; in experiment [8] (setting [26]) it was 14400 nM; in experiment [9] (setting [26]), 11800 nM.
For the sequence GGWRLSAQW, the dissociation constant Kd in [22] is 179 nM.
As for EPISDYSAEV, the Kd in experiment [5] (setting [23]) was determined as 1390 nM; in [6] (setting [23]), 46.6 nM; in [7] (setting [23]) it was 1110 nM; in [8] (setting [23]) it was 2390 nM; in experiment [9] (setting [23]), 1080 nM.
